# Source: patent US9993566B2, “SEZ6 modulators and methods of use” (AbbVie Stemcentrx LLC, priority 2013, dated 2018)
# What was measured:
# Assay type in all cases: binding
# cynomolgus SEZ6 = assay: Flow cytometry cross reactivity, yeast displaying extracellular domain of cynomolgus SEZ6; conditions: 5 μg/mL antibody
# Protocol: (§1) In this regard flow cytometry was performed using a FACSCanto II as per the manufacturer's instructions in order to confirm that selected SC17 antibody modulators can immunospecifically associate with human SEZ6 and to determine whether the same modulators cross-react with cynomolgus, rat and/or murine SEZ6 in addition to SEZ6L and SEZ6L2. More particularly modulators were tested for cross reactivity to murine SEZ6 and rat SEZ6 by flow cytometry against Neuro2a (ATCC Cat # CCL131), and RIN-m5F (ATCC cat # CRL-11605) cell lines which express mouse SEZ6 and rat SEZ6, respectively. For examining cross reactivity to cynomolgus SEZ6, yeast displaying the extracellular domain of cynomolgus SEZ6 (Boder et al, 1997) were used for flow cytometry analysis.
# (§2) Briefly 1×10^5 cells per well of Neuro2a, RIN-5mF, or yeast displaying cynomolgus SEZ6 cells were incubated for 30 minutes with 50 μL PBS (2% FCS) buffer with 5 μg/mL antibody. Cells were washed twice with the same buffer and then incubated with 50 μL per sample DyLight 649 labeled goat-anti-mouse IgG, Fc fragment specific secondary diluted 1:200 in PBS buffer. After incubating for 15 minutes cells were washed twice with the PBS buffer and re-suspended in the same with DAPI for flow cytometry analysis of Neuro2a and Rin-m5F or buffer without DAPI for flow cytometric analysis of yeast cells with cSEZ6.
# rat SEZ6 = assay: Flow cytometry cross reactivity, RIN-m5F cells; conditions: 5 μg/mL antibody
# rat SEZ6, sequence (as listed by the source): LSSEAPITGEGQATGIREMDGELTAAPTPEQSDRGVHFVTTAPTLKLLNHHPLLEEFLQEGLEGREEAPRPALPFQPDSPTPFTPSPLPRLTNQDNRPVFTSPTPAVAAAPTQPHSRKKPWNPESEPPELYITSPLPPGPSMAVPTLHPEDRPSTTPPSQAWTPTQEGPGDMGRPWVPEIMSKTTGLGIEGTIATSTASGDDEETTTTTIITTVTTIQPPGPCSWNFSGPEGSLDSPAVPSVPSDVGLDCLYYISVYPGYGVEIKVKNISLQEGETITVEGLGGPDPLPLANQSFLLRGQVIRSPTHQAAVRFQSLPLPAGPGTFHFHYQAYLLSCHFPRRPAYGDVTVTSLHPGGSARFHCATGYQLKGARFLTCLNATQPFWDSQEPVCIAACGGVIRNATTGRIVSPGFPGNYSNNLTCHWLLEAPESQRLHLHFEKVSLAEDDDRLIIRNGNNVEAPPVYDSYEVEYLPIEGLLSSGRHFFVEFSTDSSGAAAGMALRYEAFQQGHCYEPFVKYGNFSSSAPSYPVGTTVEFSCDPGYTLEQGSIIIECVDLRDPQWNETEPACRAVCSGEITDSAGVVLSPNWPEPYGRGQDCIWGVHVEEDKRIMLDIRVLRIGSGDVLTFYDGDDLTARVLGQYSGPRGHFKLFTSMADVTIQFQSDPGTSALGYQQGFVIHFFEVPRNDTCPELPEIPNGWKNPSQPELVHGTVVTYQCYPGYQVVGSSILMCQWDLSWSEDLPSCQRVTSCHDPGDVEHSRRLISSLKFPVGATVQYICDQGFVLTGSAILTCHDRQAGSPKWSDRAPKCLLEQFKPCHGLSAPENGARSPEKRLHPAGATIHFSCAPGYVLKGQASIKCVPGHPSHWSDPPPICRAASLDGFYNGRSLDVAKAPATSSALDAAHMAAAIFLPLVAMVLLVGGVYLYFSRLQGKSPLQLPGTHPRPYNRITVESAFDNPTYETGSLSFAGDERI
# Protocol: as §1, §2
# SEZ6 ECD = target: T1, SEZ6 ECD (Homo sapiens, UniProt Q53EL9); assay: Fine epitope mapping (phage display peptide library or yeast-displayed SEZ6 ECD mutants); conditions: epitope conformational (discontinuous) or linear
# T1 construct: SEZ6 extracellular domain (amino acids 1-904); expressed in transfected cells; host or cells: yeast (surface display, Cochran et al. protocol)
# T1 sequence (Q53EL9 20-923): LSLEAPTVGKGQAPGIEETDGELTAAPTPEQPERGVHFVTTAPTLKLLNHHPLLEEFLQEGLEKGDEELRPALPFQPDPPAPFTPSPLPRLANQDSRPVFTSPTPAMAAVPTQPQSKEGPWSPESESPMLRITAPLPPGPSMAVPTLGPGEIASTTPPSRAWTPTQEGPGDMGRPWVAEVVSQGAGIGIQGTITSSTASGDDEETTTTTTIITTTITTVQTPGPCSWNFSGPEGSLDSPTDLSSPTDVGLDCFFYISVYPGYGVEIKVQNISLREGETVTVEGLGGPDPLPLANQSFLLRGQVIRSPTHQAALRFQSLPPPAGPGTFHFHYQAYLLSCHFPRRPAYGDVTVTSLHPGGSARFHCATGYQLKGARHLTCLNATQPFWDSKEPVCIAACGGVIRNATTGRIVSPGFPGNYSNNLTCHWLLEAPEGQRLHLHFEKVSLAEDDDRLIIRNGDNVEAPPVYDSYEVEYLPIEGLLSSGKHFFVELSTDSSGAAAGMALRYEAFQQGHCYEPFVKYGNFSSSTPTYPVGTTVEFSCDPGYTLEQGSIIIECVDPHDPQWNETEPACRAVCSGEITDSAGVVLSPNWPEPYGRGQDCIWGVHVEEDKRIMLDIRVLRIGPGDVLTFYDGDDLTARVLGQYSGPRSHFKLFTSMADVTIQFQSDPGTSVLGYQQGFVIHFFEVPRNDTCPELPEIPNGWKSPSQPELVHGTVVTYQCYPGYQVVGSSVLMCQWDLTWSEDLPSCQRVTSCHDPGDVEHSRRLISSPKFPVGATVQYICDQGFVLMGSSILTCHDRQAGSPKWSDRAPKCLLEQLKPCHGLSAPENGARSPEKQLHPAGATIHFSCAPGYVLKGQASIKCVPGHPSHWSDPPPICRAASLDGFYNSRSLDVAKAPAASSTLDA
# Protocol: Epitopes were classified either as conformational (i.e. discontinuous) or linear. Yeast displaying the SEZ6 ECD construct was heat treated for 30 minutes at 80° C. in order to denature the antigen, washed twice in ice-cold PBSA and then subjected to the same staining protocol and flow cytometry analysis as described above. Antibodies that bound to both the denatured and native yeast were classified as binding to a linear epitope, whereas antibodies that bound native yeast but not denatured yeast were classified as conformationally specific.
# Fine epitope mapping was further performed on selected antibodies to determine the specific amino acids to which they bound. Antibodies that bound to a linear epitope were mapped using the Ph.D.-12 phage display peptide library kit (New England Biolabs E8110S). The antibody selected for epitope mapping was coated onto a Nunc MaxiSorp tube (Nunc) at 50 μg/mL in 3 mL 0.1 M sodium bicarbonate solution, pH 8 and incubated overnight. The tube was blocked with 3% BSA solution in bicarbonate solution. Then, 10^11 input phage in PBS+0.1% Tween-20 was allowed to bind, followed by ten consecutive washes with 0.1% Tween-20 to wash away non-binding phage. Remaining phage were eluted with 1 mL 0.2 M glycine for 10 minutes at room temperature with gentle agitation, followed by neutralization with 150 μL 1 M Tris-HCl pH 9. Eluted phage were amplified and panned again with 10^11 input phage, using 0.5% Tween-20 during the wash steps to increase selection stringency. DNA from 24 plaques of the eluted phage from the second round was isolated using the Qiaprep M13 Spin kit (Qiagen) and sequenced. Binding of clonal phage was confirmed using an ELISA assay, where the mapped antibody or a control antibody was coated onto an ELISA plate, blocked, and exposed to each clone phage. Phage binding was detected using horseradish peroxidase conjugated anti-M13 antibody (GE Healthcare), and the 1-Step Turbo TMB ELISA solution (Pierce). Phage peptide sequences from specifically binding phage were aligned using Vector NTI (Life Technologies) against the antigen ECD peptide sequence to determine the epitope of binding.
# Selected antibodies that bound to a discontinuous epitope were mapped using the technique described by Chao et al. (2007). Libraries of SEZ6 ECD mutants were generated with error prone PCR using nucleotide analogues 8-oxo-2′deoxyguanosine-5′-triphosphate and 2′-deoxy-p-nucleoside-5′triphosphate (both from TriLink Bio) for a target mutagenesis rate of one amino acid mutation per clone. These were transformed into a yeast display format. Using the technique described above for domain-level mapping, the library was stained for c-myc and antibody binding at 50 nM. […] These clones were re-grown, and subjected to another round of FACS sorting for loss of binding to the target antibody. Using the Zymoprep Yeast Plasmid Miniprep kit (Zymo Research), individual ECD clones were isolated and sequenced. Where necessary, mutations were reformatted as single-mutant ECD clones using the Quikchange site directed mutagenesis kit (Agilent).
# Individual ECD clones were next screened to determine whether loss of binding was due to a mutation in the epitope, or a mutation that caused misfolding. Mutations that involved cysteine, proline, and stop codons were automatically discarded due to the high likelihood of a misfolding mutation. Remaining ECD clones were then screened for binding to a non-competing, conformationally specific antibody. ECD clones that lost binding to non-competing, conformationally specific antibodies were concluded to contain misfolding mutations, whereas ECD clones that retained equivalent binding as wild type SEZ6 ECD were concluded to be properly folded. Mutations in the ECD clones in the latter group were concluded to be in the epitope. […]
Molecule,cross reactivity to cynomolgus SEZ6 (cynomolgus SEZ6),cross reactivity to rat SEZ6 (rat SEZ6),Discontinuous (SEZ6 ECD)
"SC17.17: murine anti-SEZ6 antibody (antibody, V domains shown, Murine SC17.17 VH; Murine SC17.17 VL, murine anti-SEZ6 antibody) VH: EVQLQQSGPEVMKPGASVKMSCKASGYTFTDYNMHWVKQNQGKSLEWIGEINPNIGGTGYNQKFKGKATLTVHKSSSTAYMELRSLTSEDSAVYYCARTYSYYSYEFAYWGQGTLVTVSA VL: QIVLTQSPAIMSASPGEKVTMTCSASSSVSYMHWYQQKSGTSPKRWIYDTSKLPSGVPARFSGSGSGTSYSLTISSMEAEDAATYYCQQWSSTPPTFGAGTKLELK",cross reactive,cross reactive,Yes
"SC17.121: murine anti-SEZ6 antibody (antibody, V domains shown, Murine SC17.121 VH; Murine SC17.121 VL, murine anti-SEZ6 antibody) VH: EVQLQQSGPELMKPGASVKMSCKASGYTFTDHNIHWVKQHQGKSLEWIGEINPNTGGTGYNQKFQGKATMTVDKSSSTAYMELRSLTSEDSAVYYCVRGLYFFDYWGQGTTLTVSS VL: QIVLTQSPAIMSASPGEKVTMTCSASSSVSYMHWYQQKSGTSPKRWIYDTSKLASGVPARFSGSGSGTSYSLTISSMETEDAATYYCQQWSNTPPTFGSVTKLEIK",–,–,Yes
"SC17.191: murine anti-SEZ6 antibody (antibody, V domains shown, Murine SC17.191 VH; Murine SC17.191 VL, murine anti-SEZ6 antibody) VH: EVQLQQSGPELMKPGASVKMSCKASGYTFTDYNMHWVKQNQGKSLEWIGEINPNTGGTGYNQKFKDKATLTVDKSSSTAYMELRSLTSEDSAVYYCARIPSLRRYYFDYWGQGTTLTVSS VL: QIVLTQSPAIMSASPGEKVTMTCSASSSVSYMHWYQQKSGTSPKRWIYDTSKLASGVPARFTGSGSGTSYSLTISSMEAEDAATYYCQQWSSSPPTFGAGTKLELK",–,–,Yes
"SC17.102: murine anti-SEZ6 antibody (antibody, V domains shown, Murine SC17.102 VH; Murine SC17.102 VL, murine anti-SEZ6 antibody) VH: EVQLQQSGPELMKPGASVKMSCKASGDTFTDYNIHWVKQNQGKSLEWIGEVNPNIGGIGYNQKFKGKATLTVDKSSSTAYMELRSLTSEDSAVYYCAMGRWYFDVWGAGTTVTVSS VL: QIVLTQSPAIMSASPGEKVTMTCSASSSVSYMHWYQQKSGTSPKRWIYDTSKLASGVPPRFSGRGSGTSYSLTISSMEAEDAATYYCQHWSSNPPTFGAGTKLEMK",–,–,Yes
"SC17.166: murine anti-SEZ6 antibody (antibody, V domains shown, Murine SC17.166 VH; Murine SC17.166 VL, murine anti-SEZ6 antibody) VH: EVQLQQSGPELMKPGASVKMSCKASGYIFTDYNMHWVKQNQGKSLEWIGEVNPNTGGIGYNQKFKGKATLTVDKSSSTAYMDLRSLTSEDSAVYYCARDGNYCFDYWGQGTTLTVSS VL: QIVLTQSPAIMSASPGEKVTMTCSASSSISYMHWYQQKSGTSPKRWIYDTSKLASGVPARFSGSGSGTSYSLTISNMEAEDAATYYCQQWSSTPPTFGGGTKLEIK",–,–,Yes
"SC17.4: murine anti-SEZ6 antibody (antibody, V domains shown, Murine SC17.4 VH; Murine SC17.4 VL, murine anti-SEZ6 antibody) VH: QIQLVQSGPELKKPGETVKISCKASGYTFTDYSMHWVKQAPGKGLKWLGWINTETGEPTYSEDFKGRFAFSLETSASTAYLQINNLKNEDTATYFCVKNKGWFAYWGQGTLVTVSA VL: DIKMTQSPSSMYASLGERVTITCKASQDINSYLTWFQQKPGKSPKTLIYRANRLIDGVPSRFSGSGSGQDYSLTISSLDYEDMGIYYCLQYDDFPWTFGGGTKLEIK",–,–,No
"SC17.36: murine anti-SEZ6 antibody (antibody, V domains shown, Murine SC17.36 VH; Murine SC17.36 VL, murine anti-SEZ6 antibody) VH: EVQLQESGPSLVKPSQSQSLTCSVTGDSITSDYWNWIRKFPGKKVEYMGYINYSGSTYYNPSLKSRISITRDTSKNQYYLQLNSVTSEDTATYYCARTSYYNKFLPFAYWGQGTLVTVSA VL: QIVLTQSPALMSASPGEKVTMTCSASSSVSYMYWYQQKPRSSPKPWIYLTSNLASGVPARFSGSGSGTSYSLTISSMEAEDAATYYCQQWSSNPPTFGGGTKLEIK",cross reactive,–,Yes
"SC17.45: murine anti-SEZ6 antibody (antibody, V domains shown, Murine SC17.45 VH; Murine SC17.45 VL, murine anti-SEZ6 antibody) VH: QVQLQQPGSVLVRPGDSVKLSCKASGYTFTSYWMHWVKQSPGQGLEWIGEIHPHSGSTNYNEKFKGKATLTVDTSSSTAYVDLSSLTSEDSAVYYCVGGHYDYWGQGTTLTVSS VL: ENVLTQSPAIMSASPGEKVTMTCSASSSVNYMYWYQQKSSTSPKLWIYDTSKLTSGVPGRFSGSGSGNSYSLTISNMEAEDVATYYCFQGSGYPLTFGSGTKLEIK",cross reactive,–,–
"SC17.156: murine anti-SEZ6 antibody (antibody, V domains shown, Murine SC17.156 VH; Murine SC17.156 VL, murine anti-SEZ6 antibody) VH: QVTLKESGPGILQPSQTLSLTCSFSGFSLSTSGMGVSWIRKTSGKGLEWLAHIFWDDDKWYNPSLKSRLTISKATSSNQVFLILTSVDTADTATYYCATFYGLYFAYWGQGTTLTVSS VL: DVVMTQSPLSLPVSLGDQASISCRSSQSIVHSNGNTYLEWYLQKPGQSPKLLIYKVSNRFSGVPDRFSGSGSGTDFTLKISRVEAEDLGVYYCFQGSHVPPTFGGGTKLEIK",–,–,Yes
